Experimental findings from patent US20240034762A1 (YALE UNIVERSITY, published 2024) are described below.

Test [1] addresses T1, full-length human α-Klotho with a C-terminal HA-tag on HEK293 cells stably co-expressing FGFR1c (human, UniProt Q9UEF7 34-1012).
T1 sequence: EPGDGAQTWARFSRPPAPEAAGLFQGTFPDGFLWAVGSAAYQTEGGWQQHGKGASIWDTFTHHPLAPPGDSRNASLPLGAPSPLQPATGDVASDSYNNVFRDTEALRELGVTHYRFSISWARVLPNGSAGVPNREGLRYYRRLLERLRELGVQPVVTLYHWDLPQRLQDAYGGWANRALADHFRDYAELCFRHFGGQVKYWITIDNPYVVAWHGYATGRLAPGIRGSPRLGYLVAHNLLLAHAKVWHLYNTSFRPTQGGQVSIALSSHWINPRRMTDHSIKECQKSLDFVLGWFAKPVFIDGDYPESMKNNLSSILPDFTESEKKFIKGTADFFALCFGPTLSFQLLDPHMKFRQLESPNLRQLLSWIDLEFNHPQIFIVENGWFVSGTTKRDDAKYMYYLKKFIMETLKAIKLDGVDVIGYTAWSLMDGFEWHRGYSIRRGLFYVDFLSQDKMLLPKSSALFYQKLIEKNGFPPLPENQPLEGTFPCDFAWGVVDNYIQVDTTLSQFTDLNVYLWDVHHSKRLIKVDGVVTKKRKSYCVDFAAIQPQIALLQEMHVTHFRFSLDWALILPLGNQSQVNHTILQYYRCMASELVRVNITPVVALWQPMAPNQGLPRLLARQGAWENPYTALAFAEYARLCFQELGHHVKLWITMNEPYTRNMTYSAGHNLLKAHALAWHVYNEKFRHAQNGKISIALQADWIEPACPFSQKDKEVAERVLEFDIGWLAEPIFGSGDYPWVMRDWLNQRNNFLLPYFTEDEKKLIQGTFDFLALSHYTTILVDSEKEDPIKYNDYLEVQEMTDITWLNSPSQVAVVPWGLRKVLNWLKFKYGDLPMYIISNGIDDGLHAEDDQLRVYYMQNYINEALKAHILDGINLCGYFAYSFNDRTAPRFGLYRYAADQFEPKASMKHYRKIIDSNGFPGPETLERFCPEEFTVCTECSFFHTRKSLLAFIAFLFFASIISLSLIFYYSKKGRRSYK
Put plainly: cell-based or functional assay.

Test [2] addresses T2, soluble extracellular domain of human α-Klotho (aa 1-980) fused to a 6xHis tag (human, UniProt Q9UEF7 34-980).
T2 construct: Secreted from HEK293 EBNA cells; also called sKLA; soluble α-Klotho
T2 sequence: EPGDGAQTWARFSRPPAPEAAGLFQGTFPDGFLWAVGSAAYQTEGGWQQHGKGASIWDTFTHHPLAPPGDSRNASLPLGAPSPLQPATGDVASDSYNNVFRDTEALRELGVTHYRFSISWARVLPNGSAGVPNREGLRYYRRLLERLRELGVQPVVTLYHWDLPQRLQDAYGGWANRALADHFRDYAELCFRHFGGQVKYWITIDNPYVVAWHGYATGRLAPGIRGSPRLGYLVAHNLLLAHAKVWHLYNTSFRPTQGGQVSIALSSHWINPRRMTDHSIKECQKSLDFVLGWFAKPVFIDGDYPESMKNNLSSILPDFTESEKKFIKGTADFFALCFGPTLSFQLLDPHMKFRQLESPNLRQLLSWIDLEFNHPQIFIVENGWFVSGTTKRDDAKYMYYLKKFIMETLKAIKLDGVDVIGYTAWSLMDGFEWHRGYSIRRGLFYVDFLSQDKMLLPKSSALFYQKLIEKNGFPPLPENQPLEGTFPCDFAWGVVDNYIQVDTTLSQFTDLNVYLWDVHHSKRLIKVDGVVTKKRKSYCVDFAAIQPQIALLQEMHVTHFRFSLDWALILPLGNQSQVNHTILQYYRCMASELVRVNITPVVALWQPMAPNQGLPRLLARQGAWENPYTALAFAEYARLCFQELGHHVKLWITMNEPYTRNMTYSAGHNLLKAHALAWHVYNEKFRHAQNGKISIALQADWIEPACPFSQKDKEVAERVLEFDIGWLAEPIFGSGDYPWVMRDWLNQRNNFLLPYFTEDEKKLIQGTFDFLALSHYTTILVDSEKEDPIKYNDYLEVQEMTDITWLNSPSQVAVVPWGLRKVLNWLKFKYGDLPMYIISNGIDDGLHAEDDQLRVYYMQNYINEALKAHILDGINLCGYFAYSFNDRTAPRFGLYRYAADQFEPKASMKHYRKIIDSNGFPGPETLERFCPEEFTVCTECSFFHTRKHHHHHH
Put plainly: BLI, FGF23 variant on the sensor, sKLA as analyte.

B1: human FGF23-R2 (aa 25-179 fused to aa 212-243) (ligand)
chain: YPNASPLLGSSWGGLIHLYTATARNSYHLQIHKNGHVDGAPHQTIYSALMIRSEDAGFVVITGVMSRRYLCMDFRGNIFGSHYFDPENCRFQHQTLENGYDVYHSPQYHFLVSLGAAKAAFLPGMNPPPYSQFLSRRNEIPLIHFNTPIPRQHTQSAEDNSPMASDPLGVVRGGRVNTHAGGTGPEG
Take B1: the “activation of MAPK response in HEK293 cells co-expressing FGFR1c and α-Klotho; ligand concentration at saturation” value in test [1] came out at 0.1 nM.

B2: human FGF23 D188A/D222A double mutant (ligand)
chain: DYKDDDDKYPNASPLLGSSWGGLIHLYTATARNSYHLQIHKNGHVDGAPHQTIYSALMIRSEDAGFVVITGVMSRRYLCMDFRGNIFGSHYFDPENCRFQHQTLENGYDVYHSPQYHFLVSLGAAKAAFLPGMNPPPYSQFLSRRNEIPLIHFNTPIPRQHTQSAEDDSERAPLNVLKPRARMTPAPASCSQELPSAEDNSPMASAPLGVVRGGRVNTHAGGTGPEGCRPFAKFI
notes: also called D188A/D222A double mutations
Take B2: in test [2], the binding result was “no binding (tested: sKLA 6.25 nM to 200 nM)”.
